Like-named read-outs stand apart in the source and are kept apart here.
Tests used:
[1] = system: Msr1^hu/hu ApoE^−/− mice, peritoneal macrophages; assay: LPS-mediated expression of CD80 on peritoneal macrophages (flow cytometry); format: in vivo, mouse; details: for LPS-mediated expression of CD80, pMΦ Cells: hMSR1+F4/80+CD11b+ peritoneal macrophages; for LPS-mediated expression of CD80, non-pMΦ Cells: hMSR1−F4/80−CD11b− cells
Protocol: Assay protocol for ex vivo LPS-induced responses. In ex vivo LPS challenge experiments, mice were intraperitoneally administered with 10 μL/g of anti-MSR1 antibody-steroid conjugates (H1H21234N-N297Q-LP13), isotype control steroid conjugate (Isotype control-LP13), unconjugated anti-MSR1 antibody (H1H21234N-N297Q) and isotype control antibodies at different time points (24, 48, and 72 hours) prior to harvesting the peritoneal cells from peritoneal cavity. […] All mice were sacrificed at 0 hour time point and peritoneal cells were obtained from the peritoneum by the peritoneal lavage technique. In brief, 5 mL of ice cold 1×PBS (ThermoFisher Scientific, Cat #20012027) containing 2% BSA (Gibco, Cat #A9576) and 0.6 mM EDTA (ThermoFisher Scientific, Cat #15575020) were injected into the peritoneal cavity using 27 g needle. […] The resuspended cells were plated at 500,000 cells per well in 24-well tissues culture plates and incubated with or without 10 ng/mL of LPS for 18 hours.
Assay protocol for in vivo LPS-induced responses. In in vivo LPS challenge experiments, mice were intraperitoneally administered with 10 μL/g of decreasing concentrations of anti-MSR1 antibody-steroid conjugates (H1H21234N-N297Q-LP13) and isotype control steroid conjugate (Isotype control-N297Q-LP13) at 24 hours prior to in vivo LPS challenge. PBS and free steroid P4 were intraperitoneally injected at 2 hours prior to in vivo LPS challenge. At 0 hour time point, three large drops of blood (volume ˜ 100 μL) were collected from the maxillary vein of each mouse into serum gel separator tubes. The tubes were centrifuged at 2200-2500 rpm for 15 minutes, and the serum was collected into 96-well plates for subsequent measurement of cytokines. At 18 hours post in vivo LPS challenge, the peritoneal cells were obtained from periotenal cavity as aforementioned for subsequent flow cytometry analysis.
Analysis of expression of activation markers on peritoneal macrophages after LPS ex vivo challenge. Upon collection of supernatants for cytokine analysis, the plates were washed twice with 1×PBS w/o Ca^++/Mg2^++ (ThermoFisher Scientific, Cat #14190144), and the adherent peritoneal cells were harvested by addition of 250-300 μL of cold Macrophage Detachment Solution DXF (PromoCell, Cat #C41330) for 40 minutes. The detached cells were collected into 50-mL tubes and centrifuged at 350×g for 15 minutes. After two washes with 1×PBS supplemented with 2 mM EDTA, the cells were resuspended in Cell Staining Buffer (Biolegend, #420201) and plated at 1×10^6 cells per well in a 96-well V bottom plate. Cells were centrifuged and cell pellets were resuspended in 100 μL of LIVE/DEAD Blue Fluorescent Reactive Dye (Life Technologies, Cat #L34962) diluted at 1:600 in 1×PBS to determine cell viability. Cells were incubated at room temperature for 20 minutes in dark. After one wash with 1×PBS, cells were incubated in Cell Staining Buffer containing 10 μg/mL of purified rat anti-mouse CD16/CD32 Fc Block (Clone: 2.4G2; BD Biosciences, Cat #553142) for 10 minutes at 4° C. The cells were washed once and incubated in the appropriate antibody mixture diluted in Brilliant Stain Buffer (BD Biosciences, Cat #566345) for 30 minutes at 4° C. in dark. The cells were subsequently washed with 1×PBS, resuspended in Cell Staining Buffer and acquired on FACS LSRFortessa X-20 flow cytometer (Becton Dickinson). Data were analyzed using FlowJo (Tree Star).

[2] = system: LPS-induced IL-1β release in differentiated THP-1 cells; assay: LPS-mediated IL-1β release assay; format: cell-based, human; details: for IC50: 100 ng/ml LPS for 5 hours, read-out: IC50, inhibition of LPS-induced IL-1β secretion
Protocol: To test the anti-inflammatory properties of anti-MSR1 antibody-steroid conjugates in vitro, a lipopolysaccharide (LPS)-mediated IL-1β release assay was performed. For the assay, THP-1 cells were seeded onto 96 well plates at 40,000 cells/well in media containing RPMI supplemented with 10% FBS and pencillin/streptomycinin and differentiated with 200 nM Phorbol Myristate Acetate (PMA) for 3 days. After the 3-day differentiation period, three-fold serial dilutions of antibody drug conjugates, unconjugated antibodies, or free payloads in fresh media were added to the cells at final concentration ranging from 100 nM to 0.01 nM. Media alone served as a blank control. Subsequently at 24, 48, or 72 hours later, cells were treated with 100 ng/ml LPS (InVivoGen, Cat #tlrl-eklps) for 5 hours. The cell media was then collected, and IL-1β levels were measured using a V-PLEX Proinflammatory Panel 1 human kit (Meso Scale Diagnostics, Cat #15049D-2) as per manufacturer's instructions. Subsequently, the plate was read on a Meso Scale Diagnostics instrument.
IC50 values were determined from a four-parameter logistic equation over a 10-point response curve (GraphPad Prism). All IC50 values are expressed in M (molar) concentration. The IC50 values and IL-1β amount at the maximum concentration of antibody-steroid conjugates or controls are shown in Table 22 each of the time point tested.

B1: H1H21234N-N297Q-LP13 (conjugate)
VH: QVQLQESGPGLVKPSETLSLTCTVTGGSISRNYWSWIRQPPGKGLEWIGYIYYSGSIDYNPSLKSRVTISVDTSKNQFSLKLSSMTAADTAVYYCARDRWNWKYGMDVWGQGTTVIVSS
VL: EIVLTQSPGTLSLSPGERATLSCRASQTVRNNYLAWYHQKPGQAPRLLIYGASSRATGIPDRFSGSGSGTDFTLTISRLEPEDFTVYYCHQYGNSPWTFGQGTKMEIKR
Q: Which results are given for B1?
A: LPS-mediated expression of CD80, pMΦ Cells ([1]; administered 24 hours before): 61.1 ± 1.3 % relative to PBS/LPS-treatment; LPS-mediated expression of CD80, non-pMΦ Cells ([1]; administered 24 hours before): 95.5 ± 2.6 % relative to PBS/LPS-treatment; LPS-mediated expression of CD80, pMΦ Cells ([1]; administered 48 hours before): 58.7 ± 4.2 % relative to PBS/LPS-treatment; LPS-mediated expression of CD80, non-pMΦ Cells ([1]; administered 48 hours before): 99 ± 1.8 % relative to PBS/LPS-treatment; LPS-mediated expression of CD80, pMΦ Cells ([1]; administered 72 hours before): 63.9 ± 1.01 % relative to PBS/LPS-treatment; LPS-mediated expression of CD80, non-pMΦ Cells ([1]; administered 72 hours before): 102.3 ± 0.14 % relative to PBS/LPS-treatment; LPS-mediated expression of CD80 on hMSR1^+F4/80^+CD11b^+ peritoneal macrophages (pMΦ) ([1]; in vivo administration): significant reduction; IC50 ([2]; 24-hour time point): 6.29 nM; IC50 ([2]; 48-hour time point): 3.59 nM; IC50 ([2]; 72-hour time point): 1.7 nM; IL1beta released at max concentration tested ([2]; 24 hour treatment before LPS): 119.43 pg/mL; IL1beta released at max concentration tested ([2]; 48 hour treatment before LPS): 69.3 pg/mL; IL1beta released at max concentration tested ([2]; 72 hour treatment before LPS): 70.31 pg/mL
